One assay deals with T1, CBF1 (Homo sapiens, UniProt Q06330).
T1 construct: endogenous in cells; host or cells: K562 cells retrovirally infected with NIC-1 expression vectors
As to the kind of experiment: Coimmunoprecipitation of CBF1 with NIC-1 from K562 cell lysates. Type of assay: binding. Conditions: K562 cells, retroviral infection. The protocol:
Retroviral Infection—Modified 293 human embryonic kidney cells were grown in 10 cm dishes until they were subconfluent and were cotransfected with plasmid DNA (15 μg) and pMD.G (6 μg) by the calcium phosphate transfection method as described previously (55). The medium was changed once after 10 h of transfection to remove the calcium phosphate. The pMD.G expression vector encodes the viral envelope protein VSV-G. The modified 293 cells were previously stably transfected with pol and gag genes (gift of Shigeki Miyamoto, University of Wisconsin Medical School). After additional incubation for 12 h, the medium was removed and K562 cells (10 ml, 3×10^5/ml) were added with polybrene (4 μg/ml) in complete IMEM and incubated for 36 h. The infected cells were separated from adherent 293 cells and then subjected to immunoprecipitation analysis.
Western Blotting—To detect the expression of Myc-tagged wild type NIC-1 and NIC-1 mutants, whole cell lysates were prepared in Nonidet P-40 lysis buffer (50 mM Hepes, pH 7.4, 1 mM EDTA, 150 mM NaCl, 10% glycerol, 1% Nonidet P-40, 2 mM DTT, 0.2 mM phenylmethanesulfonyl fluoride, and 20 μg/ml leupeptin). […] The proteins were transferred to an Immobilon P membrane (Millipore) and detected by immunoblotting with the anti-Myc tag monoclonal antibody 9E10. CBF1 was detected by immunoblotting with anti-CBF1 polyclonal antisera (Lam & Bresnick, unpublished data).

Another assay deals with IL-8. As to the kind of experiment: Northern blotting of IL-8 transcripts in K562-Babe and K562-NIC-1 cells. Type of assay: cell-based, human. Conditions: 5 nM TPA 12 h, stably transfected NIC-1. The protocol:
Stable Transfection—K562 cells were stably transfected by electroporation with a Bio-Rad Gene pulser electroporator. Cells (5×10^6) were washed with ice-cold PBS, resuspended in 0.5 ml of ice-cold PBS, mixed with 5 μg linearized plasmid DNA, and subjected to electroporation (960 microfarad; 220 V) in a 0.4 cm-wide electroporation cuvette (BTX). pBabe and pNIC-1 were linearized with NotI. Cells were then added to 20 ml of complete IMEM, grown for 48 h, and diluted in complete IMEM containing 1.5 μg/ml puromycin (pools of K562-Babe and K562-NIC-1 cells). Stably transfected cells were analyzed for erythroid differentiation as soon as the pools were generated by benzidine staining to reduce the probability of phenotypic changes that may result from prolonged growth.
Northern Blotting—Total RNA from K562-Babe and K562-NIC-1 cells was extracted with Triazol (Life Technologies, Inc.). Ten μg of RNA per sample was electrophoresed on a 1% agarose, 6.6% formaldehyde gel and then transferred overnight to a Magnacharge nylon membrane (Osmonics). RNA was cross-linked to the membrane by UV irradiation. Membranes were prehybridized for 30 min at 60° C. in ExpressHyb hybridization solution (Clontech). […] Radioactivity was quantitated by PhosphorImager analysis with ImageQuant software (Molecular Dynamics).

T1 sequence (Q06330 whole entry): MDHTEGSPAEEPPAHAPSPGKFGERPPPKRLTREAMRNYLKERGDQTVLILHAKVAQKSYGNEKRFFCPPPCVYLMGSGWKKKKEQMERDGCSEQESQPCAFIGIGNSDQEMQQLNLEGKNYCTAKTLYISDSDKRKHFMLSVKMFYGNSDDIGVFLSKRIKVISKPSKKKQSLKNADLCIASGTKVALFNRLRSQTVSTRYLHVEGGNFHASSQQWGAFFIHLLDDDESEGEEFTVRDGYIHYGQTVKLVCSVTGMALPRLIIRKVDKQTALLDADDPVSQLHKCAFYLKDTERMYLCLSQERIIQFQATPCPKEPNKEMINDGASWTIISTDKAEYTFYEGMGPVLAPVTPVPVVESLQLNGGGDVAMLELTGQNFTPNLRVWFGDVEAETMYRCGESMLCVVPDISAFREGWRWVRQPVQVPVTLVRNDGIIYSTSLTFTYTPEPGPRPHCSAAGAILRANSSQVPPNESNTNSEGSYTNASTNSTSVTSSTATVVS

Consider “NIC-1: constitutively active Notch-1 intracellular domain, amino acids 1759-2556 of human Notch-1 with carboxyl-terminal Myc tag, expressed from pBabe-NIC-1”, for which the “recovery of CBF1 in anti-NIC-1 immunoprecipitates” value with CBF1 was “coimmunoprecipitated”. The “TPA induction of IL-8 transcript levels in K562-NIC-1 versus K562-Babe cells” value in the assay on IL-8 is listed as “considerably lower”.

For the origin of these results see patent US20030148954A1, “Agents and methods for modulating activator protein-1-mediated cellular processes” (Wisconsin Alumni Research Foundation, priority 2001, published 2003).
